Legend:
Assay in all cases: SEC
[1] = target: recombinant motavizumab dimeric IgA1 (UniProt P01591)
[2] = target: recombinant motavizumab dimeric IgA2 (UniProt P01591)
[3] = target: recombinant palivizumab dimeric IgA1 (UniProt P01591)
[4] = target: recombinant palivizumab dimeric IgA2 (UniProt P01591)

sIgA formation [1]: 100%
sIgA formation [2]: 100%
sIgA formation [3]: 100%
sIgA formation [4]: 100%
Substance: secretory component (domain or fragment)
